Reference: publication PMC9482650, “Quantitative fragmentomics allow affinity mapping of interactomes” (Nature Communications, 2022)

T1: APBA1_2, Q02410
T1 sequence (Q02410 742-832, limits assumed, looked up): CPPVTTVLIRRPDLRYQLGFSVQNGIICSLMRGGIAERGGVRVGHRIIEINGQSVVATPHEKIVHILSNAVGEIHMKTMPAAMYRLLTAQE

T2: APBA2_2, Q99767
T2 sequence (Q99767 654-744, limits assumed, looked up): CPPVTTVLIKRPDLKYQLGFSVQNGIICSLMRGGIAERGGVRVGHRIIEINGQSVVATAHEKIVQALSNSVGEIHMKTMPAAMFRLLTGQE

T3: ARHGEF11, O15085
T3 sequence (O15085 42-136, limits assumed, looked up): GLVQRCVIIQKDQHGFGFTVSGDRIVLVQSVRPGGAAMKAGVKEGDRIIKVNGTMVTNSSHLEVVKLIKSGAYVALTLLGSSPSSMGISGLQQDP

T4: GRIP1_2, Q9Y3R0
T4 sequence (Q9Y3R0 145-248, limits assumed, looked up): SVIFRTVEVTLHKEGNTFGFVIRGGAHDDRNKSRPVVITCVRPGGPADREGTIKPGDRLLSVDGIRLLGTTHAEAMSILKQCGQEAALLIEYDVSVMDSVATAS

T5: LIN7A, O14910
T5 sequence (O14910 103-200, limits assumed, looked up): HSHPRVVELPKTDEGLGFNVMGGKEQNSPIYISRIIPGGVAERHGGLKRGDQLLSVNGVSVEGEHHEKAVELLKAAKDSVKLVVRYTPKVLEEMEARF

T6: LNX2_2, Q8N448
T6 sequence (Q8N448 334-432, limits assumed, looked up): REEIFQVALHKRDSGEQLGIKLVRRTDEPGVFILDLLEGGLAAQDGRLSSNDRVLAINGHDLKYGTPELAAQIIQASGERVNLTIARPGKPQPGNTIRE

T7: MPP7, Q5T2T1
T7 sequence (Q5T2T1 134-230, limits assumed, looked up): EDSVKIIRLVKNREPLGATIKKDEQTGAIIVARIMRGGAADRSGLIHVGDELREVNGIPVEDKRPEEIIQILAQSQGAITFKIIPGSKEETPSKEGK

T8: NHERF3_3, Q5T2W1
T8 sequence (Q5T2W1 238-333, limits assumed, looked up): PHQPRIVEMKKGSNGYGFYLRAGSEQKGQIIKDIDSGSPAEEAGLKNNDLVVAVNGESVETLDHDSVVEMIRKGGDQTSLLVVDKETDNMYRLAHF

T9: PTPN13_1, Q12923
T9 sequence (Q12923 1088-1188, limits assumed, looked up): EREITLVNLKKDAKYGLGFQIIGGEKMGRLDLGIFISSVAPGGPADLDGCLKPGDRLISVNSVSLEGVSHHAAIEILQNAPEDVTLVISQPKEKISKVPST

T10: SNTA1, Q13424
T10 sequence (Q13424 82-180, limits assumed, looked up): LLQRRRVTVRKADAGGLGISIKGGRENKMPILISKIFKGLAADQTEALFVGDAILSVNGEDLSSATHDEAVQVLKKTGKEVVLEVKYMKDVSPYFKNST

T11: SNTG1, Q9NSN8
T11 sequence (Q9NSN8 52-150, limits assumed, looked up): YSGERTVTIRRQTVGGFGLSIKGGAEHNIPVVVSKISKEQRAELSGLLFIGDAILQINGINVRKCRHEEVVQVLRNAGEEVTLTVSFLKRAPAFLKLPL

T12: SYNJ2BP, P57105
T12 sequence (P57105 8-110, limits assumed, looked up): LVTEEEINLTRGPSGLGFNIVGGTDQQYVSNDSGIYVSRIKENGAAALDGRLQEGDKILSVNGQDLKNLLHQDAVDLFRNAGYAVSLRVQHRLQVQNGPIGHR


How the values were obtained:
Assay in all cases: holdup assay
Set-up in all cases: key: below the threshold = too weak to quantify, mostly under pKd 3.1 to 4
Settings in all cases: plain residues with an end cap or a label only (N-terminal biotin on a linker: ttds)
APBA1_2, Q02410 = biological target: T1, APBA1_2, Q02410
APBA2_2, Q99767 = biological target: T2, APBA2_2, Q99767
ARHGEF11, O15085 = biological target: T3, ARHGEF11, O15085
DLG4_1, P78352 = biological target: DLG4_1, P78352
DLG4_2, P78352 = biological target: DLG4_2, P78352
GIPC2, Q8TF65 = biological target: GIPC2, Q8TF65
GRIP1_2, Q9Y3R0 = biological target: T4, GRIP1_2, Q9Y3R0
GRIP2_4, Q9C0E4 = biological target: GRIP2_4, Q9C0E4
IL16_4, Q14005 = biological target: IL16_4, Q14005
LIN7A, O14910 = biological target: T5, LIN7A, O14910
LNX2_2, Q8N448 = biological target: T6, LNX2_2, Q8N448
MAGI1_1, Q96QZ7 = biological target: MAGI1_1, Q96QZ7
MPP7, Q5T2T1 = biological target: T7, MPP7, Q5T2T1
NHERF3_3, Q5T2W1 = biological target: T8, NHERF3_3, Q5T2W1
NOS1, P29475 = biological target: NOS1, P29475
PARD3_3, Q8TEW0 = biological target: PARD3_3, Q8TEW0
PDZRN4_1, Q6ZMN7 = biological target: PDZRN4_1, Q6ZMN7
PICK1, Q9NRD5 = biological target: PICK1, Q9NRD5
PTPN13_1, Q12923 = biological target: T9, PTPN13_1, Q12923
SNTA1, Q13424 = biological target: T10, SNTA1, Q13424
SNTG1, Q9NSN8 = biological target: T11, SNTG1, Q9NSN8
SNX27, Q96L92 = biological target: SNX27, Q96L92
SYNJ2BP, P57105 = biological target: T12, SYNJ2BP, P57105
Inadl_2, Q8NI35 = biological target: Inadl_2, Q8NI35
Inadl_4, Q8NI35 = biological target: Inadl_4, Q8NI35
Inadl_8, Q8NI35 = biological target: Inadl_8, Q8NI35
Chain of Inadl_8, Q8NI35 (Q8NI35 1425-1530): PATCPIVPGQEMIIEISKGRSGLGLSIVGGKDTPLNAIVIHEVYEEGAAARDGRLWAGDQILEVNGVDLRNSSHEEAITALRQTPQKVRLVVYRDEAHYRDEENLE

Chain of PICK1, Q9NRD5 (Q9NRD5 17-115): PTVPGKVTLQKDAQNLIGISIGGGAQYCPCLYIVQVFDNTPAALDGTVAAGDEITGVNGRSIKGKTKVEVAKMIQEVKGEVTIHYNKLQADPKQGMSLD
Chain of GRIP2_4, Q9C0E4 (Q9C0E4 446-548): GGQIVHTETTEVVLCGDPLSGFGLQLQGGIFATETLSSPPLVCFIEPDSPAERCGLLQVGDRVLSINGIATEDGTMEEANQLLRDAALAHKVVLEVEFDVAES
Chain of MAGI1_1, Q96QZ7 (Q96QZ7 1-106): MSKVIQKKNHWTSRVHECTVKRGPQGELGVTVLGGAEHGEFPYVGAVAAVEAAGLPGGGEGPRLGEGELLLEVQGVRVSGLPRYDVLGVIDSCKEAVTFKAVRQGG
Chain of IL16_4, Q14005 (Q14005 1229-1329): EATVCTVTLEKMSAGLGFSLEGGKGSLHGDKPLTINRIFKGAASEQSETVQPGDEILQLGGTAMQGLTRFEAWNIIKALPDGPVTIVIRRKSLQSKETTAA
Chain of NOS1, P29475 (P29475 9-101): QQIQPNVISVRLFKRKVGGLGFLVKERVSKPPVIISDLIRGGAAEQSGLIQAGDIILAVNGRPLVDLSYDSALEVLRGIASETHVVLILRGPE
Chain of PARD3_3, Q8TEW0 (Q8TEW0 582-685): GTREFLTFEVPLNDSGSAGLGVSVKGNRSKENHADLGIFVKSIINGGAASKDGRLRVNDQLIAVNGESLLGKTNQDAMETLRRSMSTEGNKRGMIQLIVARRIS
Chain of PDZRN4_1, Q6ZMN7 (Q6ZMN7 213-318): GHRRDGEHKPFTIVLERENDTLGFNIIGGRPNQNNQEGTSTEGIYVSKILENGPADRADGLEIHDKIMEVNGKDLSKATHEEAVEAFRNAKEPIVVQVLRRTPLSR
Chain of DLG4_1, P78352 (P78352 62-152): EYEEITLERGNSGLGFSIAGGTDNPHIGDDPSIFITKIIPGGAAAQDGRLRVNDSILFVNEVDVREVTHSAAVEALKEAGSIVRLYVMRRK
Chain of GIPC2, Q8TF65 (Q8TF65 112-203): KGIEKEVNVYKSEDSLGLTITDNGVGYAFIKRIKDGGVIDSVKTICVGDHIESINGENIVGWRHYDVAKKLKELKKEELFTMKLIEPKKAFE
Chain of DLG4_2, P78352 (P78352 155-259): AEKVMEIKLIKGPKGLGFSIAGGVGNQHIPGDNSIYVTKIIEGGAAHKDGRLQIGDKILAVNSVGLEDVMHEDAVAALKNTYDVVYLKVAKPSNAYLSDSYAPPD
Chain of Inadl_4, Q8NI35 (Q8NI35 547-651): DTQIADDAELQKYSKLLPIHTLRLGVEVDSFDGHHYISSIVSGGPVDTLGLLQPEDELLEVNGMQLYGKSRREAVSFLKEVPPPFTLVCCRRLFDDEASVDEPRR
Chain of Inadl_2, Q8NI35 (Q8NI35 238-335): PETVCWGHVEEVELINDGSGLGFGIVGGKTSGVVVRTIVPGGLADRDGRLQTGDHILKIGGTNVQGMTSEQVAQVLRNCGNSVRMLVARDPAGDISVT

Binder | pKd (APBA1_2, Q02410) | pKd (APBA2_2, Q99767) | pKd (ARHGEF11, O15085) | pKd (DLG4_1, P78352) | pKd (DLG4_2, P78352) | pKd (GIPC2, Q8TF65) | pKd (GRIP1_2, Q9Y3R0) | pKd (GRIP2_4, Q9C0E4) | pKd (IL16_4, Q14005) | pKd (LIN7A, O14910) | pKd (LNX2_2, Q8N448) | pKd (MAGI1_1, Q96QZ7) | pKd (MPP7, Q5T2T1) | pKd (NHERF3_3, Q5T2W1) | pKd (NOS1, P29475) | pKd (PARD3_3, Q8TEW0) | pKd (PDZRN4_1, Q6ZMN7) | pKd (PICK1, Q9NRD5) | pKd (PTPN13_1, Q12923) | pKd (SNTA1, Q13424) | other results
EMDRRPATVV [PLCB4, Q15147] | 3.79 | below the threshold | 4.6 | 4.13 | 4.25 | 3.48 | 3.72 | below the threshold | below the threshold | below the threshold | 4.93 | below the threshold | below the threshold | below the threshold | 4.11 | below the threshold | 3.91 | below the threshold | below the threshold | 4.08 | pKd (SNTG1, Q9NSN8): below the threshold; pKd (SNX27, Q96L92): below the threshold; pKd (SYNJ2BP, P57105): 3.7
PRVKPQRSKV [PPP1R13L, Q8WUF5] | 3.54 | below the threshold | 3.64 | 3.54 | below the threshold | below the threshold | below the threshold | below the threshold | below the threshold | below the threshold | below the threshold | below the threshold | below the threshold | below the threshold | below the threshold | below the threshold | below the threshold | below the threshold | below the threshold | below the threshold | pKd (Inadl_2, Q8NI35): below the threshold; pKd (Inadl_4, Q8NI35): below the threshold; pKd (Inadl_8, Q8NI35): 4.35; pKd (SNTG1, Q9NSN8): below the threshold; pKd (SNX27, Q96L92): below the threshold; pKd (SYNJ2BP, P57105): below the threshold
SKPTRRETEV [HPV35-E6, P27228] | below the threshold | below the threshold | 4.11 | 5.09 | 5.51 | below the threshold | below the threshold | below the threshold | below the threshold | below the threshold | below the threshold | below the threshold | below the threshold | below the threshold | 3.74 | below the threshold | 4.38 | below the threshold | below the threshold | 4.85 | pKd (Inadl_2, Q8NI35): below the threshold; pKd (Inadl_4, Q8NI35): below the threshold; pKd (Inadl_8, Q8NI35): below the threshold; pKd (SNTG1, Q9NSN8): 4.31; pKd (SNX27, Q96L92): 4.66; pKd (SYNJ2BP, P57105): 5.69
